Experimental data from CN112646036A.

Target: CD23的多肽抗原 (synthetic CD23 peptide antigens of SEQ ID NO:1-3)
Assay: indirect ELISA; peptide antigens of SEQ ID NO:1-3 on the 96-well plate at varied molar concentrations, antibody at 0.125 μg/mL (about 0.83 nmol/L), HRP goat anti-mouse IgG, OD450; value given at a peptide concentration of 0.56 μmol/L

Kd: 0.7 µM
B1: 365A2D1抗CD23单克隆抗体 (anti-CD23 monoclonal antibody secreted by mouse hybridoma cell line 365A2D1) (antibody, V domains shown)
VH: EVQLQESGGGLVQPKGSLKLSCAASGYTFNTYAMHWVRQAPGKGLEWVARIRSKSNNYEPYYADSVKDRFTISRDDSQSILYLQMNNLKTEDTAMYYCVREYYDAMDYWGQGTSVTVSS
VL: EIVMTQAAPSVSVTPGESVSISCRSSQSLLHSNGNTYLYWFLQRPGQSPHLLISRVSNLASGVPDRFSGSGSGTAFTLRISRVEAEDVGVYYCMQGLEFPWTFGGGTKLEIK
